Laboratory results: paper PMC8307404, “Crystal Structure-Guided Design of Bisubstrate Inhibitors and Photoluminescent Probes for Protein Kinases of the PIM Family” (Molecules, 2021)
Square brackets hold non-standard residues; d marks the D form. Peptide text beside a SMILES is read from it. * marks the point of attachment. X3 = O=C(CCCCCNCc1nc2c(sc3cc(Br)cnc32)c(=O)[nH]1)*

Key:
Assay in all cases: Kinase profiling (radiometric filter-binding)
Format in all cases: biochemical
Aurora B = Aurora B (Homo sapiens, UniProt Q96GD4); conditions: 1 µM inhibitor, read-out: Residual activity, %
Sequence of Aurora B (Q96GD4 whole entry): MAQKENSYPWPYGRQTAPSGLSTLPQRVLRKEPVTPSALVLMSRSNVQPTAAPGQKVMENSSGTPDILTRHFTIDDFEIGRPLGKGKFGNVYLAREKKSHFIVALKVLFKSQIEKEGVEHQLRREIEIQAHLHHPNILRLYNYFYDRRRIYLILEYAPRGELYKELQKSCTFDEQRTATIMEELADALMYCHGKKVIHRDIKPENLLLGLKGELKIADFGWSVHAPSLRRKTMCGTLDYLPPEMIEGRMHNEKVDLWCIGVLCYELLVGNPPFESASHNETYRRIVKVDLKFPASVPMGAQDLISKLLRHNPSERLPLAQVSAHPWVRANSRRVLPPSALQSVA
Procedure, shortened: (§1)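 Screening format: radiometric, filter-based capture of phosphorylated substrate by human kinases. Conditions: ATP at/below KM, inhibitor 1 µM (final total). Output: remaining activity in percent of control.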

PAK5 = PAK5 (Homo sapiens, UniProt Q9P286); conditions: PAK5, 1 µM inhibitor; read-out: Residual activity, %
Sequence of PAK5 (Q9P286 whole entry): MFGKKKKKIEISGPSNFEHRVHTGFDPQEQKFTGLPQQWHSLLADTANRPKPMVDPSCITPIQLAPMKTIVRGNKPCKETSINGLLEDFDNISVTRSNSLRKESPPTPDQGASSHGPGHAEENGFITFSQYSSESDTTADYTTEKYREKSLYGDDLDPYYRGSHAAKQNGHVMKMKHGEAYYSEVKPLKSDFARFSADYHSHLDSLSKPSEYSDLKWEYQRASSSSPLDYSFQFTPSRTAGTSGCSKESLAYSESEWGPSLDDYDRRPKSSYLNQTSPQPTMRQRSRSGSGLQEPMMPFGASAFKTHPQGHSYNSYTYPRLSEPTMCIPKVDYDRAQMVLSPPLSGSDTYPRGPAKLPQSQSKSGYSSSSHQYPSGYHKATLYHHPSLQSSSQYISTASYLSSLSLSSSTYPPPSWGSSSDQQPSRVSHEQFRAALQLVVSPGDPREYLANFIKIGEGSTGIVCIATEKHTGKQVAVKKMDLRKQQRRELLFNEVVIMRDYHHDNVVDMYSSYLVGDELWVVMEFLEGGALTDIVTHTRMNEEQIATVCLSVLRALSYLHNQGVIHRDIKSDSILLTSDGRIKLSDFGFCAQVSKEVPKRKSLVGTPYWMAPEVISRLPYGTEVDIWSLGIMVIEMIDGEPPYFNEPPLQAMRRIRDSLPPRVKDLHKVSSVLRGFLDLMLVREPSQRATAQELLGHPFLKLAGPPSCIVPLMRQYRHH
Procedure, shortened: as §1

PIM3 = PIM3 (Homo sapiens, UniProt Q86V86); conditions: PIM3, 1 µM inhibitor; read-out: Residual activity, %
Procedure, shortened: as §1

MAP4K3 = molecular target: T1, MAP4K3 (Homo sapiens, UniProt Q8IVH8); conditions: MAP4K3, 1 µM inhibitor; read-out: Residual activity, %
T1 sequence (Q8IVH8 1-894): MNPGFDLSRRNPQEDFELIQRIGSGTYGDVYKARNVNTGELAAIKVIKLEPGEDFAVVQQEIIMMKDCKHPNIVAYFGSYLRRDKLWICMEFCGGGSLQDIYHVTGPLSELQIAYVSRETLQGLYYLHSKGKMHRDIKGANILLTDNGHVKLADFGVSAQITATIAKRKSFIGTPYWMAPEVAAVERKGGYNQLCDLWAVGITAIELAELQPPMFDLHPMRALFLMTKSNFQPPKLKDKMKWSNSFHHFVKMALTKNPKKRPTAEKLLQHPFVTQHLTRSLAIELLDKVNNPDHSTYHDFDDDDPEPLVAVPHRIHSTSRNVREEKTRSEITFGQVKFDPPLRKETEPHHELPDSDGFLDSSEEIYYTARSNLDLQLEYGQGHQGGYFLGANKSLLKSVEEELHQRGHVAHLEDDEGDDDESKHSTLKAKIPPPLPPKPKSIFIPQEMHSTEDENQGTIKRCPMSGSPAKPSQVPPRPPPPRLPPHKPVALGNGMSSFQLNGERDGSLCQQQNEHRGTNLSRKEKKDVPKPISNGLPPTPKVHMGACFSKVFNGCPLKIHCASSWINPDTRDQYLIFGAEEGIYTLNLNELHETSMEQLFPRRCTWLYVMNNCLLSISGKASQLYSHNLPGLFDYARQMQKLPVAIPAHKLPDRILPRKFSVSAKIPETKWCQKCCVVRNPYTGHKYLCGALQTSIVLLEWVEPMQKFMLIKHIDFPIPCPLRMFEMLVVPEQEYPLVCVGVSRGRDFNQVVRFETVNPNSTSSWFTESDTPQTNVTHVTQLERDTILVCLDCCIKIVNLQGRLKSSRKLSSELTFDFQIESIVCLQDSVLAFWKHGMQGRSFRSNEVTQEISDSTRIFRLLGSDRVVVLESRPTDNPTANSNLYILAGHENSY
Procedure, shortened: as §1

PKD1 = molecular target: T2, PKD1 (Homo sapiens, UniProt Q15139); conditions: PKD1, 1 µM inhibitor; read-out: Residual activity, %
T2 sequence (Q15139 1-912): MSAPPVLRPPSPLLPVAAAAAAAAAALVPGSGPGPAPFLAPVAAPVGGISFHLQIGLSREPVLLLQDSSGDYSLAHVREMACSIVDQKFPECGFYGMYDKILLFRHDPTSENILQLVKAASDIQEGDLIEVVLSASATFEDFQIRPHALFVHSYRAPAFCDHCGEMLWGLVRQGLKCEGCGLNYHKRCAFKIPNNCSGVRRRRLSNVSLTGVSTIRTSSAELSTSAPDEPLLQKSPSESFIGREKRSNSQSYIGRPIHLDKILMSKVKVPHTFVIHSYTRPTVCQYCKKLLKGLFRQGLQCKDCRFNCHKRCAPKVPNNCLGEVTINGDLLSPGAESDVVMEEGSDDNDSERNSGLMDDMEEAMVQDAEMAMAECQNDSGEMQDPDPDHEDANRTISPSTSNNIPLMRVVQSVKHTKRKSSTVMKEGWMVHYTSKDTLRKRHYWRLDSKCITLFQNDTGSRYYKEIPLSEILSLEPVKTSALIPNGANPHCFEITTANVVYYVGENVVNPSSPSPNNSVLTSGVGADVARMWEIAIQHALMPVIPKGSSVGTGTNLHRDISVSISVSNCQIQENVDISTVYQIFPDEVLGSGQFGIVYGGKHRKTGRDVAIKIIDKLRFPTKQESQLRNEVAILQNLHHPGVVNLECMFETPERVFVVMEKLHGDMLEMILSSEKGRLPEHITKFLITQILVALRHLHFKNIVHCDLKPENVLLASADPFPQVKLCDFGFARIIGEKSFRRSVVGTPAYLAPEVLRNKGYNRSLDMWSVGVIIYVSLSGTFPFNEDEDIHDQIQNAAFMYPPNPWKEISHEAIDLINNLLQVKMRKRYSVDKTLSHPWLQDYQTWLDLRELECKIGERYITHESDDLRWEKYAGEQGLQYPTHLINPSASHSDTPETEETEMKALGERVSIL
Procedure, shortened: as §1

PAK4 = PAK4 (Homo sapiens, UniProt O96013); conditions: PAK4, 1 µM inhibitor; read-out: Residual activity, %
Sequence of PAK4 (O96013 whole entry): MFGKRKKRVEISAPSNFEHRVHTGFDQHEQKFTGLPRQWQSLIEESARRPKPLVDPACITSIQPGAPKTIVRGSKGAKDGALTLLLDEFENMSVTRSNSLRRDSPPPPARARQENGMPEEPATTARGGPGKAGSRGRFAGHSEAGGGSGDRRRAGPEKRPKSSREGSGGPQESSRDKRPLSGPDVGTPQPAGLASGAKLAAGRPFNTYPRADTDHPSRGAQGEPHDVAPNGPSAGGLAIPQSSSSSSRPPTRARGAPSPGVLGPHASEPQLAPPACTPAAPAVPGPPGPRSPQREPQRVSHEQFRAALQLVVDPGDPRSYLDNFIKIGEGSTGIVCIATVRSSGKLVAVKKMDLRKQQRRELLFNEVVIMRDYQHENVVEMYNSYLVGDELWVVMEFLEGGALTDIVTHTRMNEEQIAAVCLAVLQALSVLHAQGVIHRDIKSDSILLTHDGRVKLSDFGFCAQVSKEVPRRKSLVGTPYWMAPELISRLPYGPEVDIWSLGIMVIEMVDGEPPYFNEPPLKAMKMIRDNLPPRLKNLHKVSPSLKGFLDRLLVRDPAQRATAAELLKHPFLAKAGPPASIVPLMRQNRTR
Procedure, shortened: as §1

| SMILES | remaining activity at 1 µM (Aurora B) [%] | remaining activity at 1 µM (PAK5) [%] | remaining activity at 1 µM (PIM3) [%] | remaining activity at 1 µM (MAP4K3) [%] | remaining activity at 1 µM (PKD1) [%] | remaining activity at 1 µM (PAK4) [%] |
| --- | --- | --- | --- | --- | --- | --- |
| N=C(N)NCCC[C@@H](NC(=O)CNC(=O)[C@@H](CCCNC(=N)N)NC(=O)[C@@H](CCCNC(=N)N)NC(=O)Cn1cc(CNCc2nc3c(sc4ccc(Br)cc43)c(=O)[nH]2)nn1)C(=O)N[C@H](CCCCN)C(N)=O [Compound 3, BBTP-Amt-(D-Arg)2-Gly-D-Arg-D-Lys-NH2] | 111 ± 1 | 92 ± 5 | 6 | 105 ± 2 | 82 ± 3 | 77 ± 13 |
| N=C(N)NCCC[C@@H](NC(=O)CCCCCNCc1nc2c(sc3cc(Br)cnc32)c(=O)[nH]1)C(=O)N[C@H](CCCNC(=N)N)C(=O)N[C@H](CCCNC(=N)N)C(=O)N[C@H](CCCNC(=N)N)C(=O)N[C@H](CCCNC(=N)N)C(=O)N[C@H](CCCNC(=N)N)C(=O)N[C@H](CCCCN)C(N)=O [ARC-3126, BPTP-Ahx-(D-Arg)6-D-Lys-NH2] (X3-[dR][dR][dR][dR][dR][dR][dK]-NH2) | 114 ± 20 | 89 ± 2 | 13 | 81 ± 7 | 111 ± 10 | 71 ± 42 |
| N=C(N)NCCC[C@@H](NC(=O)CCCCCNC(=O)Cn1cnc2c(I)c(I)c(I)c(I)c21)C(=O)N[C@H](CCCNC(=N)N)C(=O)N[C@H](CCCNC(=N)N)C(=O)N[C@H](CCCNC(=N)N)C(=O)N[C@H](CCCNC(=N)N)C(=O)N[C@H](CCCNC(=N)N)C(=O)N[C@H](CCCCN)C(N)=O [ARC-3125, TIBI-CH2-C(=O)-Ahx-(D-Arg)6-D-Lys-NH2] | 100 ± 4 | 25 ± 6 | 7 ± 1 | 17 ± 1 | 18 ± 4 | 50 ± 2 |
| N=C(N)NCCC[C@@H](NC(=O)CNC(=O)[C@@H](CCCNC(=N)N)NC(=O)[C@@H](CCCNC(=N)N)NC(=O)CCCCCCCNCc1nc2c(sc3cc(Br)cnc32)c(=O)[nH]1)C(=O)N[C@H](CCCCN)C(N)=O [Compound 1, BPTP-Aoc-(D-Arg)2-Gly-D-Arg-D-Lys-NH2] | 102 ± 19 | 112 ± 3 | 17 | 119 ± 1 | 128 ± 13 | 91 |
| N=C(N)NCCC[C@@H](NC(=O)CNC(=O)[C@@H](CCCNC(=N)N)NC(=O)[C@@H](CCCNC(=N)N)NC(=O)CCCCCCCNCc1nc2c(sc3ccc(Br)cc32)c(=O)[nH]1)C(=O)N[C@H](CCCCN)C(N)=O [Compound 2, BBTP-Aoc-(D-Arg)2-Gly-D-Arg-D-Lys-NH2] | 98 ± 2 | 100 ± 2 | 4 ± 1 | 118 ± 3 | 134 ± 14 | 98 ± 14 |
